This passage reports Km, kcat and kcat/Km results from publication PMC8056888 (Journal of Applied Glycoscience, 2017).

One may read the Km as the substrate concentration at which the rate is half of its maximum. The kcat is the maximal rate divided by the concentration of active sites. For orientation: kcat/Km means the turnover number divided by the Michaelis constant.

One series deals with Foagl1. As to conditions: conditions not stated for this substrate.
Substrate in series [1]: CO[C@H]1O[C@H](CO)[C@@H](O)[C@H](O)[C@H]1O
As to the kind of experiment: purified protein. As to conditions: conditions not stated for this substrate.

Substrate in series [2]: O=[N+]([O-])c1ccc(O[C@H]2O[C@H](CO)[C@@H](O)[C@H](O)[C@H]2O)cc1
The series can be described thus: purified protein. The conditions noted are these: pH 6.0, sodium phosphate, 30 °C.

`CO[C@H]1O[C@H](CO)[C@@H](O)[C@H](O)[C@H]1O` [α-MG]: the Km in the series with Foagl1 turned out to be 24.3 mM.

B1: AgdC (Aspergillus niger CBS 513.88) (protein)
chain: MAKSASQIHRAWWKECSVYQIWPASYKDSNDDGIGDIPGIISKLDYIKNIGVDIVWLCPSYKSPQVDMGYDIADYYSIADEYGTVADVEKLIQGCHERGMKLLMDLVVNHTSDQNEWFKQSRSSKDNKYRNWYVWKPARYDEQGNRHPPNNWVSHFQGSAWEWDEHTGEYYLHLYATEQPDLNWEHPPVRKAVHDIMRFWLDKGADGFRMDVINFISKDQRFPDAPVKDPRTPWQWGDKYYANGPRLHEYLQDLGKILKEYDAFSVGEMPFVRDTEEVLRAVRYDRNEINMIFNFEHVDIDHGTYDKFEPGSWKLTDLKAFFETWQKFMYNNDGWNALYWENHDQPRSIDRYAQAKEEFRTEAGKMLATVLALQSGTPFVYQGQEIGMRNVPVEWDMNEYKDIDCLNHWHRLLKHRPDDIEAQKSARQEYQKKSRDNGRTPVQWSSAPNGGFTGPNAKPWMSVSPDYVRFNAEAQVNDPNSIYHYWAAVLGLRKKYLDIFVYGDYDLVDKDSQEIFAYARQYENKKALVLTNWTEKTLEWDATTNGVKGVKDVLLNSYESAEAAKGRFSGQKWSLRPYEAVVLLVEA
With B1, the Km in “purified protein [1]” amounted to 32.8 mM; in the series “purified protein [2]”, 7.8 mM. The kcat in the series “purified protein [1]” came out at 5.0 s⁻¹; in the series “purified protein [2]”, 19.8 s⁻¹.

B2: Agl1 (Aspergillus oryzae RIB40) (protein)
chain: MATPGNQNHRAWWKESSVYQIWPCSFKDSNDDGIGDIPGIISKLDHIKNLGIDIVWLCPSYKSPQVDMGYDIADYYDIAPEYGTVADVEKLIKGCHERGMKLLMDLVVNHTSDQHEWFKQSRSSKDNEYRNWYIWKPARYDEQGNRQPPNNWVSHFQGSAWEWDEHTQEYYLHLYATEQPDLNWEHPPVRKAVHDIMRFWLDKGANGFRMDVINFISKDQRFPDAPIKDPRTPWQWGDKYYANGPRLHEYFQELGKILKEYDTFSVGEMPFVTDTEEVLRAVKYDRNELNMIFNFEHVDIDHGKYDKFEPGSWELTDLKFFFERWQKFMYENDGWNALYWENHDQPRSVDRYTNAKEEDRVIASKMLATILALKAGSPFVYQGQEIGMGNVPPEWDIEEYKDIDCLNHWKRLPNDPEIQKIARQEYQKKSRDNGRTPVQWTNAPNAGFTSPNVKPWMSVNPNYARGINAEAQVNDPNSTYSYWASVLGLRKKYVDIFVYGNYELVDRDSQEIFAYTRQYEDQKALVLANWTDGTLEWDSSSNGVKAVKDVLLNTYDSASDVKERFSGSKWSLRPYEAVVLLIEA
For the molecule B2, in “purified protein [1]”, the Michaelis constant (Km) worked out at 31.3 mM. Besides, in “purified protein [2]”, the Michaelis constant (Km) is reported as 8.3 mM, the kcat came to 17.5 s⁻¹ and the kcat/Km worked out at 2120 M⁻¹ s⁻¹.
